Results published in patent US20170088605A1 (Novartis, published 2017).
Like-named read-outs stand apart in the source and are kept apart here.

T1: BKV serotype I infectious virus (VP1) (BK virus serotype I, UniProt P03088 1-362)
T1 sequence (looked up): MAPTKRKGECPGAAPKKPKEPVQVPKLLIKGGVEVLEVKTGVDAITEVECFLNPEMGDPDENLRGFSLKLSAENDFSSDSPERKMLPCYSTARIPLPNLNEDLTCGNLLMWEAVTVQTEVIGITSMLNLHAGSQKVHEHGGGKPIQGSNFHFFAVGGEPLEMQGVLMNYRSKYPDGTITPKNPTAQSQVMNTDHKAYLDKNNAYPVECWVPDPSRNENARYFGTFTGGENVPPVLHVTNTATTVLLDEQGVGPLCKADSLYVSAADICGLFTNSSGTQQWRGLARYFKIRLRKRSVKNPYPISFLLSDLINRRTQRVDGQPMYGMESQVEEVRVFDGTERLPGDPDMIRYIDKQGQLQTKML

B1: 2075-16-1 (antibody, V domains shown)
VH: QVQLQQPGSELVRPGASVKLSCKASGYTFTNYWMHWVKQGHGQGLEWIGNIYPGSGNTNYGENFKSKGTLTVDTSSSTAYMHLSRLTSEDSAVYYCSRSAIYYGYDGHYFAMDYWGQGTSVTVSS
VL: DIQMTQSPSSLSASLGGKVTITCKASQDIRKYIAWYQHKPGKGPRLLINYTSTLQSGIPSRFRGSGSGRDYSFSISNLEPEDIATYYCLQYDNILFTFGTGTKLEIK
B2: EBB-C1975-A3 (antibody, V domains shown)
VH: EVQLVETGGGLVQPGGSLRLSCAASGFTVRRNYMSWVRQAPGKGLEWVSGIYSGGSTYYADSVKGRFTISRDYSKNTLSLQMNTLRVEDTAVYFCAREDEFWSGYSAGVDWGQGTLVTVSS
VL: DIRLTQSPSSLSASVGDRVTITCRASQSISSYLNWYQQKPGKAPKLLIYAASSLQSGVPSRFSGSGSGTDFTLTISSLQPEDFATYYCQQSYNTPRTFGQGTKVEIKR
B3: EBB-C1975-E7 (antibody, human IgG1, kappa, V domains shown)
VH: EVQLLESGGGLVRPGGSLRVSCAASGFTVSRNYMSWVRQAPGKGLEWVSGIYGGGRTYYAESVKGRFTISRDYSKNTLFLQMNTLRVEDTALYFCAREDEFWSGYSAGVDWGQGTLVTVSS
VL: DIQVTQSPSSLSASVGDRVTITCRASQSISSYLNWYQQEPGKAPKLLIYAASTLQTGVPSRFSGSGSGTDFTLTISSLQPEDFATYYCQQSYNTPRTFGQGTKVEIKR
B4: 2081-66-5 (antibody, V domains shown)
VH: QVQLQQSGPELVKPGASVRISCKVSGFTFSNSWMNWVKQRPGQGLEWIGRIYPGDGDTQYNEKFKGKATLTADTSSNTAYIQLNSLTSVDSAVFFCARSRSGLDYWGQGTTLTVSS
VL: DIQMTQSTSSLSASLGDRVTISCRASQDIYNYLNWFQQKPDGTVKPLIYSTSRLHSGVSSRFSGSGSGTDYSLTISNLEREDIATYFCHQSHTVPFTFGSGTKLEIK
B5: 2081-38-5 (antibody, V domains shown)
VH: QVQLQQSGPELVKPGASVKISCKASGYTFSSSWINWVKQRPGQGLEWIGRIYPGDGDTNYNGKFKGKATLTADKSSSTVDMHLSSLTYVDSAVYFCAIHSSGFPHWGQGTLVTVSA
VL: DIQMTQTTSSLSASLGGRVTISCRTSQDISDYLNWYQQKPDGAVKLLIYYTSRLHSGVPSRFSGSGSGTDYSLTISNLEQEDIATYFCQQTNTLPFTFGGGTKLEIK
B6: EBB-C1975-B5 (antibody, human IgG1, kappa, V domains shown)
VH: QVQLVQSGPGLVKPSETLSLTCTVSGGSTSAYYWTWIRQPPGKGLEWIGYISHSGSTNYNPSLKSRVTISADTSKNQLSLKVNSVTAADTAVYYCARLGDTASLSRFYYYIDVWGKGTTVTVSS
VL: EIVMTQSPDTLSLSPGERATLSCRASQSVSSNYLAWYQQKPGEAPRLLIYGASSRATGIPDRFSGSGSGTDFTLTISRLEPEDFAVYYCQQYGSSPPYTFGQGTRLEIKR
B7: NEG447 (antibody, human IgG1, lambda, V domains shown)
VH: QVQLQESGPGLVKPSETLSLTCTVSGGSISRDYWSWVRQPPGAGLEWIGNIYYSGSTNYNPSLKSRVTISVATNKKQFSLKLTSVTAADTAVYYCARVPGCSSTSCIDGWFDPWGQGILVTVSS
VL: QSVLTQPPSLSAAPGQKVTISCSGSSSNIGNTYVSWYQQLPGTAPKLLIYDNNKRPSGIPDRFSGSKSGTSATLGITGLQTGDEAVYYCGTWDSSLSAWVFGGGTRLTVLG
B8: P165E2 (antibody, human IgG1, lambda, V domains shown)
VH: QVQLQESGPGLVKPSETLSLTCTVSGGSISRDYWTWVRQPPGEGLEWIGNIYYSGSTNYNPSLKSRVTISVAASKKQFSLKLTSVTAADTAVYYCARVPGCSSTSCIDGWFDPWGQGILVTVSS
VL: QSVLTQPPSLSAAPGQRVTISCSGSSSNIGNTYVSWYQQLPGTAPKLLIYDNNKRPSGIPGRFSGSKSGTSATLGITGLQTGDEAAYYCGTWDSSLSAWVFGGGTRLTVLG
B9: P7G11A (antibody, human IgG1, lambda, V domains shown)
VH: QVQLQESGPGLVKPSQTLSLTCTVSGGSISSGGYSWSWIRQPPGKGLEYIGYIYYRGTTYYNPSLKSRVTISVDTSNNQISLKLSSVTAADTAVYYCARALTHLVGVGWFDPWGQGTMVTVSS
VL: QSVLTQPPSVSAAPGQKVTISCSGGSSNLGSNYVSWYQQLPGTAPKLLIYDNNKRPSGIPDRFSGSKSGTSATLGITGLQTGDEADYYCGTWDGSLSAWVFGGGTKVTVLG
B10: P7G11 (antibody, human IgG1, lambda, V domains shown)
VH: QVQLQESGPGLAKPSQTLSLTCSVSGGSISSGGYSWSWIRQPPGKGLEYIGYIYYRGTTYYNPSLKSRITMSVDTSNNQISLKLTSVTAADTAVYYCARALTHLVGVGWFDPWGQGTMVTVSS
VL: QSVLTQPPSVSAAPGQKVTISCSGGSSNLGSNYVSWYQQLPGTAPKLLIYDNNKRPSGIPDRFSGSKSGTSATLGITGLQTGDEADYYCGTWDGSLSAWVFGGGTKVTVLG
B11: 2075-456-4 (antibody, V domains shown)
VH: QVHLQQSGPELVKPGASVTISCKTSGYSFSSCWMNWVKQRPGQGLEWIGRIYPGDGDTKYTEKFKDKATLTADKSSSTAYMQLSSLTSVDSALYFCAISGSGLPYWGQGTLVTVSE
VL: DIQMTQTTSSLSASLGDRVTISCRASQDIHNYLNWYQQKPDGTIKLLIYSTSRLHSGVPSRFSGSGSGTHYSLTINNLEQEDIATYFCQQTHTLPLTFGAGTKLELK
B12: 2081-25-6 (antibody, V domains shown)
VH: QVQLQQSGAELVRPGSSVKISCKASGYAFSRYWMNWVKQRPGQGLEWIGQIYPGDGDTKYNGKFKDTATLTADKSSSTAYLQLSSLTSEDSAVYFCAKYGNYGMDYWGQGTSVTVSS
VL: DAVMTQTPLSLPVSLGDQASISCRSSQSLEYGNGNTYLNWYLQKPGQSPQLLIYRVSNRFSGVLDRFSGSGSGTDFTLKISRVEAEDLGVYFCLQFTHVPYTFGGGTKLEIK

Experiments:
Test in all cases: cell-based or functional assay
[1] = target: T1, BKV serotype I infectious virus (VP1)
[2] = target: T1, BKV serotype I infectious virus (VP1); remark: listed apart in the source
[3] = target: T2, BKV serotype III chimeric infectious virus (VP1 of isolate AS) (BK virus serotype III)
[4] = target: T3, BKV serotype II chimeric infectious virus (VP1 of isolate SB) (BK virus serotype II)
[5] = target: T4, BKV serotype IV chimeric infectious virus (VP1 of strain ITA-4) (BK virus serotype IV)
[6] = target: T1, BKV serotype I infectious virus (VP1); remark: listed apart in the source
[7] = target: T2, BKV serotype III chimeric infectious …; remark: listed apart in the source
[8] = target: T3, BKV serotype II chimeric infectious …; remark: listed apart in the source
[9] = target: JCV infectious virus, isolates Mad-1 and Mad-4 (VP1) (JC virus)
[10] = target: T4, BKV serotype IV chimeric infectious …; remark: listed apart in the source

| Binder | neutralization EC50 [1] [µg/mL] | neutralization EC90 [1] [µg/mL] | neutralization EC50 [6] [µg/mL] | neutralization EC90 [6] [µg/mL] | neutralization EC50 [7] [µg/mL] | neutralization EC90 [7] [µg/mL] | neutralization EC50 [8] [µg/mL] | neutralization EC90 [8] [µg/mL] | neutralization EC50 [9] [µg/mL] | neutralization EC90 [9] [µg/mL] | neutralization EC50 [10] [µg/mL] | neutralization EC90 [10] [µg/mL] | further results |
| --- | --- | --- | --- | --- | --- | --- | --- | --- | --- | --- | --- | --- | --- |
| B1 | 0.065 | 1.25 |  |  |  |  |  |  |  |  |  |  |  |
| B2 |  |  |  |  |  |  |  |  |  |  |  |  | neutralization EC50 [2]: 0.045 µg/mL; neutralization EC90 [2]: 4.84 µg/mL; neutralization EC50 [3]: > 100 µg/mL; neutralization EC90 [3]: > 100 µg/mL; neutralization EC50 [4]: 0.12 µg/mL; neutralization EC90 [4]: 25.2 µg/mL; neutralization EC50 [5]: 0.13 µg/mL; neutralization EC90 [5]: 8.18 µg/mL |
| B3 |  |  |  |  |  |  |  |  |  |  |  |  | neutralization EC50 [2]: 0.01 µg/mL; neutralization EC90 [2]: 2.62 µg/mL; neutralization EC50 [3]: > 100 µg/mL; neutralization EC90 [3]: > 100 µg/mL; neutralization EC50 [4]: 0.33 µg/mL; neutralization EC90 [4]: 9.61 µg/mL; neutralization EC50 [5]: 0.35 µg/mL; neutralization EC90 [5]: 8.61 µg/mL |
| B4 | 0.041 | 0.601 |  |  |  |  |  |  |  |  |  |  |  |
| B5 | 0.053 | 1.8 |  |  |  |  |  |  |  |  |  |  |  |
| B6 |  |  |  |  |  |  |  |  |  |  |  |  | neutralization EC50 [2]: 0.033 µg/mL; neutralization EC90 [2]: 5.53 µg/mL; neutralization EC50 [3]: 0.76 µg/mL; neutralization EC90 [3]: > 100 µg/mL; neutralization EC50 [4]: 0.42 µg/mL; neutralization EC90 [4]: 24.2 µg/mL; neutralization EC50 [5]: 0.15 µg/mL; neutralization EC90 [5]: 7.83 µg/mL |
| B7 |  |  | 0.004 | 0.27 | > 100 | > 100 | 0.024 | 6.72 | > 100 | > 100 | 0.012 | 0.34 |  |
| B8 |  |  | 0.009 | 0.37 | > 100 | > 100 | 0.081 | 7.98 | > 100 | > 100 | 0.012 | 0.46 |  |
| B9 |  |  | 0.0008 | 0.34 | > 100 | > 100 | 0.074 | 2.89 | > 100 | > 100 | 0.015 | 0.53 |  |
| B10 |  |  | 0.007 | 0.37 | > 100 | > 100 | 0.187 | 1.79 | > 100 | > 100 | 0.011 | 0.48 |  |
| B11 | 0.092 | 0.503 |  |  |  |  |  |  |  |  |  |  |  |
| B12 | 0.213 | 0.723 |  |  |  |  |  |  |  |  |  |  |  |
